{"source": "a protein production outcome set (Wang et al. 2014)"}
{"assay": "label from the status in PepcDB records"}
{"sequence": "MLKSIRYLLTIIICLFVGACQHTQDNEEPNSIRKVNLSKAASFNVQLGLGYLKQGDRPRAKKKLLTALEQQPDSADVNAALAYYFEQTKELEQAKKFYHKAITLSQNGGAQLNNYGAFLCRQGDYKNAETYFLKAVKDQNYVHTSGAYENAGLCAMAIPDHDKAILYFTKALNQDPSRKESLYELVKLQSKIGHDKEALELLQKHADLVLNDKVMLALAKDIANRTGQYTLAAEYENSFNKLEQTNNISGVNDEYNSSNG", "protein production": "failed"}
{"sequence": "MLKVLIQTLILGVLLGASAARAELPADYKVVLLTENFPPFNMAVDDKNFARDDGIDGISADIVREMFRRAGIGYSLSLRFPWDRLYRLTLDKPGYGLFSMTYTPERVPQFKWVGPLADTSWVLLAPAGSKIAVKNLKDAARYKLGAYKNDAVSQHLEAQGIPVINALRDQENVKKLTGGQIDLWATTDPVGRYLAKQEGVSGLQTVLRFNEAKLYLALNKDTPDEVVERLQKALEQMRQEGFVDEAVANYL", "protein production": "failed"}
{"sequence": "MLLAYSMKVVYHLFSGGKDSSLAAWILKKLGYEVKLITITFGVLDNWKFARETAEILGFDHEVIEMPIGILEKATEMCIKEGRAGNAIQYIHERALEYIASREEVKRISDGTRRDDRVPFLDLSKARSLEDRYNVAYIRPLLGLGYKTIRELVNEIFVVVEDESEKVQKGDYETELRELIRRKGHDPSQIFPKRHVQSRVVGLR", "protein production": "not failed"}
{"sequence": "MLLDVKFTKNTCTKLIGLWLKFFLFYSLLPFSTSAQEASFRFKRLGLEDGLSQISVNGIAQDVNGFIWFATQDGLNKYDGYQITTYRHQPSDPNSIINNHIHSIFKDSKHNLWIGSYGGLSKYEPKTDNFTHYNSPSLNDSDGKVGYIQSLFEDSDGELWLSSNMGLYRYSIDTNTYILYLPDDNKPNSVIHSEIKSIAEDSIGNIWIGTTIGVSKYNKRNNTFTNYQHSPENPHSLSNNFVLKIYKDSQNNLWFGTFGGGLDRYDNDTSKFVHHRTNTQNKNSLGNNYIRTILEDSAGMLWLGTNNGLYAFDSSKLIFQRFRHSVNDRHSLSHDVIYSLFQDKDGSLWAGTLGGGVNLFRPSTNVFKHYKSNPNNPESLNANMVYAIYDDDEYVWVGTSGGGLNKLNKTTGKFSNFTEPETSVGLGLNKVNYIIKASEAELWLSTNSDGLLKYNKNTGNITQYKHHPDDRNSLSNNRARGLAIDKEGNLWIGTAGGGLNKLDPISGQFTHFMPDTDNPNSISTNFIRCLLYDSKGRLWTGSYGQGLNRFDFDTQTFINFNKDSVKEPILSNKFIRSIFEDKSGNIWVLTNGGIIKYDESKGSFHSYTTTDGLPSNVVYGALEDQKNNLWLSTNNGLSKFNPQNITFENYTKEEGIQENEFNTGSFFKNKTGEMYFGGINGFTLFHPDKIKKDKTIPTVSFTNLLLYNDAIAIGESERFSSHISSTNALNFAHNDDVITFEFSALSYSQANNISYRYQLQGFSDNWIETDHNHRRATFTNLSKGDYILKVKASNRNRSWGEETTDLRITIAAAYWETTWFRGLLLAIGFIVFVIAIKWREKALNNQNLVLDIMVKERTKELESSQEYSNKLEKLVQKRTLNLQKANTALEQSSITDALTGIRNRRFLDQQLSSDWAIQSRNNLPLSILMIDIDYFKKYNDYYGHQQGDECLQKIAKEIQSVINRPTDNLCRYGGEEFVVITYNDAEGAKHIAKLILKKLDELALVHLTSDKGIVSVSIGLGTMVPSIEVAPARLLKYADDALYQAKNNGRDQLC", "protein production": "failed"}
{"sequence": "MLLHLSDLHFGTEKPECLTAIEDFCRQHRPEVIVVSGDLTQRARFIQFYNCKQFLESLNVPYLVVPGNHDIPLYHLWNRFFSPFVRYQFFFGELEPTLETEHFFIVGVNSIRRRYHTRGYISLEQIQKTNEILKQAPSHKLKLVVLHQPFYTPPDQPHGIKDCPVLGRMALDNWSKSGLFGVLHGHLHKTAVYDLTQIYQLRVDESVYDIHAGTATSYRLYKNLPNSFNVILNDGRVEHYWFDPASKAFVLKTDLYEK", "protein production": "failed"}
{"sequence": "MLLISKKSALAAASTTLFVLLWSSGAIFSKWGLAHASPFAFLLLRFVIALIGLMLLAPLLKLRLPRGRRAMGFAVATGLVLLGAYQIFYILALDLKVTPGVMATIMGVQPILTVVLMERQRSWSRLFGLSLGLAGLVMVVYQSIGLAGMSITGMLCGLLALVSMTAGSIMQKRITDNPLGTLPVQYLAGLLLCALFVPFQPFHFEHSAGFVIPLLWMGLVVSVLATLLLYRLIAQGNLVNVTSLFYLVPAVTALMDYLFFGNRLGLLSLVGMGLIIVGLVFVFRKQP", "protein production": "not failed"}
{"sequence": "MLLITPDELKSYSVFESVKTRPDELLKQDILEATADIILKVGHDFSDAEYIPLPETVRLALLKLSQFYALINGDESIIKGYTTEKIGDYSYTLGDGSPLQKPDVYALIKDYVKPADPDLEGIEAKVRMRSILEHHHHHH", "protein production": "not failed"}
{"sequence": "MLLKPDQRLKLDDTDDNLFYAYPRFVTHVDEGFIQRLTDLYRERLQPNTRILDMMSSWVSHLPEEIKFAHVEGHGLNAEELKRNPRLNHYFVQNLNENPGLPLPDQEFDAVLNCVSVQYLQYPEAVFSEIHRILKPGGVAIISFSNRMFYQKAIQAWRDASEPGRLELVKRYFASVPGFSTPEIIARKSTAPNFLQWLGAPGGDPFYAAIAHRKLEHHHHHH", "protein production": "failed"}
{"sequence": "MLLKSIIPCMVKAFKFRLYPTTAQAVQLNQHIGSCRFVYNWALDQKIKTYEQTGKSISRFDLNKLIPTLKASNEWLGEVNSQSLQGMTKQVESAFTRFFRGKTGFPKFKSKKNPIQSFPVPQHYSVDFEKNTIKLPKIEPIKAVFHRKFEGELKTATVSRTCKGHYYISILVEDGKELPVKEAFAESTTIGIDVGIKDFAVLSNGEKIENPKYLKNSLKRLKVLQKRVSKKQKGSKNRAKAKQRLAVLHDKITNQRNDFQNKLSFKLISENQAVALETLNVKGMVKNHHLAQSISDSAWSSFVTKLEYKAEWFGKTILRIGQFEPSSKLCSVCGYHNKELQLKDREWTCPDCKTKHDRDINAAINIKKFALVDQNLIGLLEHHHHHH", "protein production": "not failed"}
{"sequence": "MLLRSPSYAGKAAQAQEGDAYGVYQLATLLIGMDAEDETSCLLAADALYRLGRLDDAHKSLLVALSQRPQAAPVLVRLALLQLRRGFCYDANQLVKKVAQSGDTACLQHMLDIFHHEDLQLLQDHCHTRALSILRARPGGSDSEAHTREAIAYLSLAIFAAGSGGSESLLVRARCYGLLGQKKTAMFDFNAILREEPGNVKALCGRALVHLALDQLQEAVDDMVSALKLDPGTVTPEILSLKTEVQLPLTQGLYTRCRVLLNQCLHTGVPLREEDTQGLLATGKALIRINATQPSWRLLLTDILTGLGKYQEAGTHLQEALHLTPSSEAAQARQGLLQLKKGDVSAAAHGLQCLAERDTQDLGFLLRLLDSPERQSLVQTAAKEASNILDLGNPGQALSYCSLAILAGGNNPYHLRLRVACLTQLREYDRALRDLDRVLQHPAEDSDLPRRSEDFCTRGRLLLSLGDKDGAAGAFTQALALAPAQAQNSLLEQPGQAMTASVFLIHGQRCLEEQHFEEAWTAVQNGLLVDPSHSGLKKLKLRTRKVATSGCRLH", "protein production": "failed"}
{"sequence": "MLLSHIMGMDYIMSIITLALLLLAEILVAIILIGVSIEICSYGWKKSNGIKYSCLLLSLLLGTASILGLLAAPAYFFIQLTEKAL", "protein production": "failed"}
{"sequence": "MLLSVIITAQGRKGYVMQAVRSVLSQNIPKEDFEIIVSKDFKDDVIDEFLDGRAIVLNENHIRSGSRVASAVLQSSGKILVFLDDDDLFYPGKLREVKIVFSEMGVDYFKNSVKPVAESGDTVSYYQPAIKSDIFVKEPNEQDIRKLLKLRAGFNSSSISLKKDILVGYLDVLSKINLAVDSFYFFLYMSHSRPIYYSKKTLSLYRVLSKSTSRDVRNINAYAEFKSKFYELYSRDFETISEMASDGPCSKLAKTEFHLQMAYKWIFNTYRKEERPRMLHTLASSIYSHDPFIALPWPSFMKKIVQRREYFREKKLLSENTELEHHHHHH", "protein production": "failed"}
{"sequence": "MLLTLALVILFATIMVFFSQEFIRTFKKILAIRGAKLLIPLGIASWLIYNFDYLFIWVIYYIREVLQAVLAFLTRIMPFKPYSTSIALIILLTTVSVGPVLLLDLIYRKRTYKGYAYPYLTSTLILIFCTLILLVVS", "protein production": "failed"}
{"sequence": "MLLTLPAPLRRALWAQVRRELPRECVGALGGWVRGEQVQAHALYPLPNVAADPEREYLADPGDLLRVVRAMQREGLDLVALYHSHPHGPAAPSASDRRLAAYPVPYLIADPAAEVLRAYLLPGGEEVEVRSADESNLEHHHHHH", "protein production": "failed"}
{"sequence": "MLMSEIGQIAAILATAREVAVATHIIPDGDCLGSMLGLTLALRKRGTSVIAINADPVPEMFQYLPGQETIIDPDQVTSMPPLLVMVDCTDMERAGKGFSNWQQRVEKIINIDHHVSNTRFGHLNLVDSRAAATAELIYAVLEQIPATFTPEVATCLYTALATDTGSFQYENCTARTLRLAASLLEKGADMPLIREHLWESKPLNSIRLLAATLPTLTLAYEGRVAWMTVSRAALEANGARPEHAEGLVNYPRSIAGVEVGMLFRELPDGKVKVSLRSKKIVDVNRVAALFGGGGHRRAAGCTLDGDLDTVVARVVAAAGEAL", "protein production": "failed"}
{"sequence": "MLMVFALLVSLAFASYHPDDAVVLRSADWSEVVLNPQSAQADGPVQNVLGLLGAQLAEACVPGFIGYGVLLISGLLMVWGYAVFRHASLRRLLYPSLLTAFSAFILSCVVGWVHHTVDAPLRAWAGLVGIGTAGWMQNVFGEVGSFILLLLAGAVLLLLVVDHDIQRTVDRVIRAARRIGAGVSAAGAYIRDQWSRARAHAPEPKATSPASDPSSSASASGSPSASSPEPPSSPPAEESTSSPPPARTRPEDSGAQTPSVRRNDLFRPGRDPAPSATDDNTASPEPAPDSSARTSDADPPEDDAPKDIPDETTASTPAEESPATDSPPPSRPADENASSDEPAAPAPDEPPPDASDGPDDDVSMTIQEQVEEETTDEIERTAELPDDFEYEPPSLDLLDESVDTDPTINREELEENKRVLLDKLDMYNIEIEEINAVVGPTVTRYELTPAPGIKVSRIKSLEDDLAMAMAAPGIRMIAPIPGKSAVGVEIPNRNRELVRLRDVIGTRKFQDTDLKLPLPLGKNIEGEVHVGDLATMPHLLIAGATGSGKSVGLNSIITGLIYACHPANLRFVIIDPKKIELQQYTALETQFVAVPEDIDQTVITDIDEASGVLKSVEREMETRYDLLSDASVRNITGYNEKFQAGELDPTEGHRHMPYLVVVVDELADLMMAAGDDVEGPISRLAQMARAVGIHLILATQRPSVDVVTGVIKANFPSRIAFEVASRVDSRTILDQGGAEDLVGNGDMLFLSGSDLKRLQGPFVSVEEVEEVVDYVADQPGVTPYTLPSLQDAGHGPDETLGVEDTDEKFEEAARVIVRRQQGSVSLLQRKLAVGYTRAARIVDQLEEAGIVGPFNGTKARDVLVDDEQALDDLLHGEDADEADPEEA", "protein production": "failed"}
{"sequence": "MLNALKNRLRVWYDPEMKAIARIIREMNSKGGDDLVVTECNKVFVDRLRVFPIALKMDFWEHHFELEGFSDFPEIGGDILDFGCGSGHLDVYLARRGFTVTGVDLSPVGIAIASFIRENEAADVKKRLLFFVADVTADLPPRQFDAAWSAHVFEHIKNPGPVLAGLKNWIKPGGSLLISVPFGRAYDDPGHVNHFYSEADLQHYLGGHISVERIKIYRDHQVIRALCKNDGDGKNDR", "protein production": "failed"}
{"sequence": "MLNFKTFSDLRPKKTRAFVFVKILRLWNWPPNYFGEEPTMILVDEKGHRIDAKSSRHAYKEEMISTLREGKWYILSNFKVVVANPLERFSTHVFQIEFLKKTTMEPVTPKSRYHFIECVDFHTIKHAAPIQKKFVVDAMGVIESVSPIGKIPWVARDWESDFASRYLVFTLKDSMHKYIKCVAVGSSCEEFERKWYKKISEPNFKMEPVMIILRFWKISEFEGKPCLISVYGCSKVHIDPNFRGIDKNNYL", "protein production": "failed"}
{"sequence": "MLNKVNLADIRSFVLIAQLGNFTKAAEALSVSRSHVSRQISGLEAQMGVTLLNRTTRTLRLTHAGERFYHDCEKALRDIDQALIAAVDDTQEIRGVIRVNCVGGYIGEDIIAKYVCEFMQQYPNVSIDLDFSSPRIDLIEDQFDVAFRMGELDDAGFVARKLMTVDMVTLASPSYVQQYGMPIHPKELAEHRTLTGSVARWSYRKADNPNDHTDVVVKGNLRCKNGRALVMGALHGNGIIRVPLSYCAEEVELGQLIKVMPNWEIPSVPFSAIFHRDRYQPKRLRTFIDFIKQKFEDS", "protein production": "failed"}
